Results as given in patent US20160137740A1 (AstraZeneca / MedImmune, published 2016).

Assays:
Test in all cases: ELISA, plate coated with a dilution series of the recombinant TNFRSF protein [panel B]
[1] = molecular target: T1, Recombinant human TNFRSF11B (OPG) (human, UniProt O00300 22-401, limits assumed)
T1 construct: Plate-adsorbed antigen of the ELISA; also called osteoprotegerin
T1 sequence (looked up): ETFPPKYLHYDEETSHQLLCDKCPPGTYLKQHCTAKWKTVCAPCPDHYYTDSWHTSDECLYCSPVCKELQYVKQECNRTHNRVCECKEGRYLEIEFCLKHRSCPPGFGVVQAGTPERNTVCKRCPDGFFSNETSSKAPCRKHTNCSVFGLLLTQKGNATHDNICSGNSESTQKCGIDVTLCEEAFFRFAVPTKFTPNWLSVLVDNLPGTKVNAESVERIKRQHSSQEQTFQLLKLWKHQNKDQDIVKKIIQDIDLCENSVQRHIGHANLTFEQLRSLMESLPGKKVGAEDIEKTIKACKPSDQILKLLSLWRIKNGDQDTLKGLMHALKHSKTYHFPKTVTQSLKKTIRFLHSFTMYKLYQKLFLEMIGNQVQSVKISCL
Method: (§1) An eight point, two-fold dilution series of each recombinant human TNFRSF protein was prepared after dilution of stock proteins to 5 μg/mL in PBS. Subsequently, 50 μL of each antigen dilution was transferred in duplicate to wells of a Nunc 96-well MaxiSorp flat bottom plate, and incubated overnight at 4° C. to adsorb proteins to the plate. Afterwards, plates were washed three times with PBS in a BioTek® plate washer to remove unbound protein. Anti OX40 mAb29, 9B12, and control antibodies were diluted in PBS to a final concentration of 10 μg/mL, and 50 μL of mAb were added to each well and incubated at room temperature for one hour to bind mAb to plate-bound protein. Thereafter, wells were washed with PBS/Tween-20 0.1% (volume/volume) using a BioTek® plate washer. HRP conjugated goat anti-human or goat anti-mouse secondary antibodies at 10 μg/mL was added to each well and incubated at room temperature for 1 hour. After three washes in PBS/Tween-20 0.1%, 50 μL of TMB substrate was added to each well and incubated at room temperature for 5 minutes to develop the colorimetric product. Reactions were stopped by adding 50 μL of 0.5 molar H₂SO₄ to wells, and plates read immediately at 450 nm using an Envision C plate reader for detection of the colorimetric product.

[2] = molecular target: T2, Recombinant human TNFRSF9 (CD137) (human, UniProt Q07011 24-186, limits assumed)
T2 construct: Plate-adsorbed antigen of the ELISA
Method: as §1

[3] = molecular target: T3, Recombinant human TNFRSF21 (DR6) (human, UniProt O75509 42-349, limits assumed)
T3 construct: Plate-adsorbed antigen of the ELISA
T3 sequence (looked up): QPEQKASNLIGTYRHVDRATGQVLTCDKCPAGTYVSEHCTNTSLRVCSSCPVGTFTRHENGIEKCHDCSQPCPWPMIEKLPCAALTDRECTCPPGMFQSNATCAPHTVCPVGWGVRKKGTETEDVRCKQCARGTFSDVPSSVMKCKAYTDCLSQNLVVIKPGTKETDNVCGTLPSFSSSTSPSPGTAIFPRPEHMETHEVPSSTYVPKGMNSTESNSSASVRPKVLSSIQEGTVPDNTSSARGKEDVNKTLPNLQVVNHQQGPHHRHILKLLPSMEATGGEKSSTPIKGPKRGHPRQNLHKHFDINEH
Method: as §1

[4] = molecular target: T4, Recombinant human TNFRSF14 (HVEM) (human, UniProt Q92956 39-202, limits assumed)
T4 construct: Plate-adsorbed antigen of the ELISA
T4 sequence (looked up): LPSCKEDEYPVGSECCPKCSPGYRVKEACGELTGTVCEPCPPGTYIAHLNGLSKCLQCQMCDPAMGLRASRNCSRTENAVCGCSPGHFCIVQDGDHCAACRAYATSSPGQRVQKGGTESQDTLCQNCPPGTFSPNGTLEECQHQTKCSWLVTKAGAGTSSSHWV
Method: as §1

[5] = molecular target: T5, Recombinant human TNFRSF5 (CD40) (human, UniProt P25942 21-193)
T5 construct: Plate-adsorbed antigen of the ELISA
Method: as §1

[6] = molecular target: T6, Recombinant human TNFRSF16 (NGFR) (human, UniProt P08138 29-250)
T6 construct: Plate-adsorbed antigen of the ELISA
T6 sequence (looked up): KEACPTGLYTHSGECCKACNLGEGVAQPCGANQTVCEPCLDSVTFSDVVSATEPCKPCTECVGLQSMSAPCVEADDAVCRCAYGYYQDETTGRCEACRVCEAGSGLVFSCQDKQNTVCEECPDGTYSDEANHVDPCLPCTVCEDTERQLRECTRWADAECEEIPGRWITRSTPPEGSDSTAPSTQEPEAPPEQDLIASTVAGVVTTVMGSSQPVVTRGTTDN
Method: as §1

[7] = molecular target: T7, Recombinant human TNFRSF18 (GITR) (human, UniProt Q9Y5U5 26-162, limits assumed)
T7 construct: Plate-adsorbed antigen of the ELISA
T7 sequence (looked up): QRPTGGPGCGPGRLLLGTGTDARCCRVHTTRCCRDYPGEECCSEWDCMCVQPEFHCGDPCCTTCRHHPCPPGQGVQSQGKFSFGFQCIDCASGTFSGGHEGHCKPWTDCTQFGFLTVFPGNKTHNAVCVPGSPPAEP
Method: as §1

[8] = molecular target: T8, Recombinant human TNFRSF11A (RANK) (human, UniProt Q9Y6Q6 30-212)
T8 construct: Plate-adsorbed antigen of the ELISA; also called CD265
T8 sequence (looked up): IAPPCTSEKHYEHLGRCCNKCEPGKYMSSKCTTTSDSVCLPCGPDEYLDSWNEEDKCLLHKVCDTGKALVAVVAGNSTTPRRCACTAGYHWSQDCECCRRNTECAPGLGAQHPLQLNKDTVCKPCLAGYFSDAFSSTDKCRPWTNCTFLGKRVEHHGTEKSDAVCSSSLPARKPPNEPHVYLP
Method: as §1

[9] = molecular target: T9, Recombinant human TNFRSF3 (LTβR) (human, UniProt P36941 28-227, limits assumed)
T9 construct: Plate-adsorbed antigen of the ELISA
Method: as §1

Measured: binding result

T9 sequence (P36941 28-227 limits assumed): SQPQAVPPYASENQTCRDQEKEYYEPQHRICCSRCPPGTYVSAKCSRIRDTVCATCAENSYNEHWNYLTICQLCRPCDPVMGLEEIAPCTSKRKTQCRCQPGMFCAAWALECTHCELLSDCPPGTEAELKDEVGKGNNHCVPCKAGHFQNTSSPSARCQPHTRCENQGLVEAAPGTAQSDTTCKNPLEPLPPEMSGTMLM
T5 sequence (P25942 21-193 limits assumed): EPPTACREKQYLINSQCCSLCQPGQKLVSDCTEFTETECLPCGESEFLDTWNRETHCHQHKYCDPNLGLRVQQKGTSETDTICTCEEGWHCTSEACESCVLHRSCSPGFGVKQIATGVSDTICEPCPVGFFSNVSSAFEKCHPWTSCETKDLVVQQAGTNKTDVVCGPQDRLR

B1: 9B12 (antibody, mouse IgG1, V domains shown)
VH: EVQLQESGPSLVKPSQTLSLTCSVTGDSFTSGYWNWIRKFPGNRLEYMGYISYNGITYHNPSLKSRISITRDTSKNHYYLQLNSVTTEDTATYFCARYRYDYDGGHAMDYWGQGTLVTVSS
VL: DIQMTQTTSSLSASLGDRVTISCRASQDISNYLNWYQQKPDGTVKLLIYYTSKLHSGVPSRFSGSGSRTDYSLTITDLDQEDIATYFCQQGSALPWTFGQGTKVEIKR
notes: mouse IgG1 kappa; also called murine mAb 9B12; mouse anti-human OX40 IgG1κ monoclonal antibody
no binding: all assays above
